# Measured values reported in US20210292396A1.
# What was measured:
# Assay in all cases: cell-based or functional assay
# [1] = target: HIV Env of isolate ZM214.15 (HIV)
# [2] = target: Env of HIV isolate 3301.v1.c24 (clade AC) (HIV)
# [3] = target: HIV Env of isolate ZM215.8 (HIV)
# [4] = target: HIV Env of isolate CNE10 (HIV)
# [5] = target: Env of HIV isolate A07412M1.vrc12 (clade D) (HIV)
# [6] = target: Env of HIV isolate SF162.LS (clade B) (HIV)
# [7] = target: Env of HIV isolate 25925-2.22 (clade C) (HIV)
# [8] = target: HIV Env of isolate C2101.c1 (HIV)
# [9] = target: HIV Env of isolate MB201.A1 (HIV)
# [10] = target: HIV Env of isolate 96ZM651.02 (HIV)
# [11] = target: Env of HIV isolate T33-7 (clade AG) (HIV)
# [12] = target: HIV Env of isolate MI369.A5 (HIV)
# [13] = target: Env of HIV isolate CNE10 (clade B) (HIV)
# [14] = target: HIV Env of isolate P0402.c2.11 (HIV)
# [15] = target: Env of HIV isolate 231965.c01 (clade D) (HIV)
# [16] = target: Env of HIV isolate CNE8 (clade AE) (HIV)
# [17] = target: HIV Env of isolate BaL.26 (HIV)
# [18] = target: Env of HIV isolate ZM233.6 (clade C) (HIV)
# [19] = target: HIV Env of isolate T280-5 (HIV)
# [20] = target: HIV Env of isolate M02138 (HIV)
# [21] = target: HIV Env of isolate C4118.09 (HIV)
# [22] = target: HIV Env of isolate CAP256.206.C9 (HIV)
# [23] = target: HIV Env of isolate QH0515.01 (HIV)
# [24] = target: HIV Env of isolate T251-18 (HIV)
# [25] = target: HIV Env of isolate BB539.2B13 (HIV)
# [26] = target: Env of HIV isolate HT593.1 (clade B) (HIV)
# [27] = target: Env of HIV isolate CAP244.D3 (clade C) (HIV)
# [28] = target: HIV Env of isolate ZM135.10a (HIV)
# [29] = target: HIV Env of isolate DU172.17 (HIV)
# [30] = target: HIV Env of isolate TH976.17 (HIV)
# [31] = target: Env of HIV isolate 6471.v1.c16 (clade C) (HIV)
# [32] = target: Env of HIV isolate 6785.v5.c14 (clade C) (HIV)
# [33] = target: Env of HIV isolate BaL.26 (clade B) (HIV)
# [34] = target: HIV Env of isolate 6540.v4.c1 (HIV)
# [35] = target: Env of HIV isolate CNE12 (clade B) (HIV)
# [36] = target: HIV Env of isolate DU156.12 (HIV)
# [37] = target: HIV Env of isolate RW020.2 (HIV)
# [38] = target: HIV Env of isolate TRJO.58 (HIV)
# [39] = target: HIV Env of isolate BS208.B1 (HIV)
# [40] = target: HIV Env of isolate 288.38 (HIV)
# [41] = target: HIV Env of isolate Ce1176.A3 (HIV)
# [42] = target: HIV Env of isolate 3637.v5.c3 (HIV)
# [43] = target: HIV Env of isolate JRCSF.JB (HIV) (UniProt P20871)
# Sequence of HIV Env of isolate JRCSF.JB (HIV) (P20871 32-848 limits assumed): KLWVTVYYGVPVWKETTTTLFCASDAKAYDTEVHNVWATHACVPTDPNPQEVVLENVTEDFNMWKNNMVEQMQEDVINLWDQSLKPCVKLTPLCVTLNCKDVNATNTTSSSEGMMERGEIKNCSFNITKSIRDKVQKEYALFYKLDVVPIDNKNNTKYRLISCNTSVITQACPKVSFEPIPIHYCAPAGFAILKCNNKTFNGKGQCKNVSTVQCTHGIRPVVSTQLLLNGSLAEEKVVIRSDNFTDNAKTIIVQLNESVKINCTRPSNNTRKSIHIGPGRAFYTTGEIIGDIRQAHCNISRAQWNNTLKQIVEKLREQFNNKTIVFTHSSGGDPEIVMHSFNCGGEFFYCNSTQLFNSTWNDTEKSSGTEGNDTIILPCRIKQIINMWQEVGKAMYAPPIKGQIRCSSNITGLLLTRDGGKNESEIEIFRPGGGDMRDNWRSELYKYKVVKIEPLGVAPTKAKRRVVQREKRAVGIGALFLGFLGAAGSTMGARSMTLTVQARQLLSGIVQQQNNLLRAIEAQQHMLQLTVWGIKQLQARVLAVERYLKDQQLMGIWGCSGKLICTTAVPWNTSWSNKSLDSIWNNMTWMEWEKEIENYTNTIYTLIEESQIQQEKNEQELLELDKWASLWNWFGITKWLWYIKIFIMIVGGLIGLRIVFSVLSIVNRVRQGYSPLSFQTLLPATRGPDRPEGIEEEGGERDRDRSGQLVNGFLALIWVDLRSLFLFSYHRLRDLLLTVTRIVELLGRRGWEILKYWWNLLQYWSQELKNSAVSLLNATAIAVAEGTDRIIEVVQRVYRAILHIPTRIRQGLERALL
# [44] = target: Env of HIV isolate 0439.v5.c1 (clade A) (HIV)
# [45] = target: Env of HIV isolate 16055-2.3 (clade C) (HIV)
# [46] = target: HIV Env of isolate 16845-2.22 (HIV)
# [47] = target: HIV Env of isolate X2088.c9 (HIV)
# [48] = target: HIV Env of isolate 6095.v1.c10 (HIV)
# [49] = target: HIV Env of isolate TH023.6 (HIV)
# [50] = target: HIV Env of isolate DJ263.8 (HIV)
# [51] = target: Env of HIV isolate Q842.d12 (clade A) (HIV)
# [52] = target: Env of HIV isolate 25710-2.43 (clade C) (HIV)
# [53] = target: Env of HIV isolate ZM135.10a (clade C) (HIV)
substance,measurement,setting,value
PGT121 (antibody),"IC80, pseudovirus neutralization",[1],1.57 µg/mL
same,"IC50, pseudovirus neutralization",[2],0.0217 µg/mL
same,"IC80, pseudovirus neutralization",[3],0.084 µg/mL
same,IC80,[4],0.048 µg/mL
same,"IC50, pseudovirus neutralization",[5],0.042 µg/mL
same,"IC50, pseudovirus neutralization",[6],0.00733 µg/mL
same,"IC50, pseudovirus neutralization",[7],0.045 µg/mL
same,IC80,[8],> 50 µg/mL
same,IC80,[9],0.0283 µg/mL
same,"IC80, pseudovirus neutralization",[10],0.0613 µg/mL
same,"IC50, pseudovirus neutralization",[11],> 50 µg/mL
same,IC80,[12],0.128 µg/mL
same,"IC50, pseudovirus neutralization",[13],0.0193 µg/mL
same,"IC80, pseudovirus neutralization",[14],0.0297 µg/mL
same,"IC50, pseudovirus neutralization",[15],> 50 µg/mL
same,"IC50, pseudovirus neutralization",[16],> 50 µg/mL
same,IC80,[17],0.06 µg/mL
same,"IC50, pseudovirus neutralization",[18],0.731 µg/mL
same,IC80,[19],0.038 µg/mL
same,IC80,[20],> 50 µg/mL
same,IC80,[21],> 50 µg/mL
same,"IC80, pseudovirus neutralization",[22],0.046 µg/mL
same,IC80,[23],> 50 µg/mL
same,IC80,[24],23.2 µg/mL
same,IC80,[25],> 50 µg/mL
same,"IC50, pseudovirus neutralization",[26],> 50 µg/mL
same,"IC50, pseudovirus neutralization",[27],> 50 µg/mL
same,"IC80, pseudovirus neutralization",[28],3.69 µg/mL
same,"IC80, pseudovirus neutralization",[29],0.41 µg/mL
same,IC80,[30],> 50 µg/mL
same,"IC50, pseudovirus neutralization",[31],> 50 µg/mL
same,"IC50, pseudovirus neutralization",[32],0.0503 µg/mL
same,"IC50, pseudovirus neutralization",[33],0.0227 µg/mL
same,IC80,[34],> 50 µg/mL
same,"IC50, pseudovirus neutralization",[35],0.0153 µg/mL
same,"IC80, pseudovirus neutralization",[36],0.0367 µg/mL
same,IC80,[37],0.0177 µg/mL
same,IC80,[38],18.6 µg/mL
same,IC80,[39],> 50 µg/mL
same,"IC80, pseudovirus neutralization",[40],0.0443 µg/mL
same,"IC80, pseudovirus neutralization",[41],0.066 µg/mL
same,"IC80, pseudovirus neutralization",[42],> 50 µg/mL
same,IC80,[43],0.162 µg/mL
same,"IC50, pseudovirus neutralization",[44],> 50 µg/mL
same,"IC50, pseudovirus neutralization",[45],0.312 µg/mL
same,"IC80, pseudovirus neutralization",[46],18.6 µg/mL
same,"IC80, pseudovirus neutralization",[47],0.019 µg/mL
same,IC80,[48],> 50 µg/mL
same,IC80,[49],> 50 µg/mL
same,IC80,[50],0.202 µg/mL
same,"IC50, pseudovirus neutralization",[51],0.0217 µg/mL
same,"IC50, pseudovirus neutralization",[52],0.0227 µg/mL
same,"IC50, pseudovirus neutralization",[53],0.748 µg/mL
